This is an account of results in patent US20260139067A1 (BETH ISRAEL DEACONESS MEDICAL CENTER, published 2026).

Assay [1] has as its target T1, CDCP1 expressed on the surface of human cells (PC3, H1299, H2009 and others) (human, UniProt Q9H5V8 30-836).
T1 construct: Endogenous CDCP1 of human cell lines; also called CDCP1 antigen expressed on PC3 cells; CDCP1 expressing cells
Kind of assay: immunoprecipitation: antibody 24 (5 µg/ml) added to intact PC3 cells (80 min, 4 °C), Western blot.

Assay [2] addresses T1, CDCP1 expressed on the surface of human …. Briefly: immunoprecipitation: antibody 76 (20 ng/ml) added to intact PC3 cells (80 min, 4 °C), Western blot.
For assay [3] the target is unchanged. Briefly: flow cytometry on H2009 cells (lung adenocarcinoma), anti-human IgG Fc R-PE detection. The method, then: (§1) Binding was evaluated on three human cancer cell lines, PC3 (prostate cancer), H1299 (Non-small cell lung cancer), and H2009 (lung adenocarcinoma). To accomplish this, adherent cells were first dissociated with Cell Dissociation Buffer (Life Technologies #13150-016), pelleted by centrifugation, and resuspended by FACS buffer (PBS-CMF, 3% FBS, 0.1% weight/volume (w/v) sodium azide). […] Following a thirty-minute incubation on ice in dark, the cells were washed twice, combined with eFluor 660 Fixable Viability Dye (eBioscience #65-0864-18), and fixed (BD Cytofix, BD Biosciences #554655). Stained cells were acquired on a LSR Fortessa instrument using BD FACSDiva Software. Background subtracted gMFI of viable cells was determined using FlowJo software and plotted using Graphpad Prism software to generate EC₅₀ s (FIGS. 26A and 26B).

Assay [4] shares this target. Kind of assay: flow cytometry on H1299 cells (NSCLC), anti-human IgG Fc R-PE detection. The method, then: as §1
Assay [5] concerns the target T2, recombinant cynomolgus monkey CDCP1 extracellular domain (cynomolgus monkey, UniProt A0A2K5VLA8 30-663).
T2 construct: range 30-663; also called cyno CDCP1 ECD; cynomolgus monkey CDCP1-ECD
Briefly: SPR (Biacore T200), antibody captured on anti-human IgG, CDCP1-ECD injected. The method, then: (§2) Specifically, the binding kinetics of anti-CDCP1 antibodies against recombinant human, cynomologus monkey and mouse CDCP1-ECD were determined using surface plasmon resonance (SPR) and a Biacore T200 instrument (GE Healthcare). An anti-human IgG antibody was amine coupled onto a CM5 carboxymethylated dextran sensor chip surface (GE Healthcare), using the manufacturer's recommendations, to densities of approximately 10,000-13,000 response units (RU). Each anti-CDCP1 antibody was diluted to 0.5 μg/mL in 10 mM HEPES pH 7.4, 0.15 M NaCl, 3 mM EDTA, 0.05% P-20 (HBS-EP+) and captured for about 20-23 seconds at a flow rate of 10 μL/min. […] The sensorchip surface was regenerated with three 30 second pulses of 3M MgCl₂ at a flow rate of 50 μL/minute. All injections used HBS-EP+ as both the running and sample buffer and were performed at 25° C. with a data collection rate of 1 Hz. Sensorgrams were double referenced by using both a control surface and buffer injections. Rate constants were determined by fitting the data to a 1:1 model with Biacore T200 evaluation software v3.0 and the equation KD=kd/kₐ.

The target in assay [6] is T3, recombinant human CDCP1 extracellular domain (CDCP1-ECD) (human, UniProt Q9H5V8 30-663).
T3 construct: Expressed in HEK293 and chemically biotinylated for the phage selection; also called human CDCP1 ECD; human CDCP1-ECD
The description is as above. The method, then: as §2

Assay [7] deals with T1, CDCP1 expressed on the surface of human …. Kind of assay: flow cytometry on PC3 cells (prostate cancer), anti-human IgG Fc R-PE detection. The method, then: as §1
The target in assay [8] is T2, recombinant cynomolgus monkey CDCP1 …. Kind of assay: SPR (Biacore T200), antibody captured on anti-human IgG, CDCP1-ECD injected; experiment 2. The method, then: as §2
The target of assay [9] is T3, recombinant human CDCP1 extracellular …. Described as above. The method, then: as §2
Assay [10] deals with T1, CDCP1 expressed on the surface of human …. Kind of assay: competition FACS on PC3 cells; competitor: biotinylated CP13E10 reporter at 1.5 µg/mL, streptavidin-PE detection. The method, then:
For this competition FACS assay procedure, PC3 cells were detached from flasks using cell dissociation buffer (Gibco, catalog number 13151-014), washed once with ice-cold FACS buffer (PBS-CMF pH 7.2+3% FBS+0.1% sodium azide) and 2.5×10⁵ cells in 50 μl buffer were added to each well in 96-well V-bottom plates (Corning catalog number 3894). […] Next, the cells were washed twice with FACS buffer. Streptavidin-PE (Invitrogen/eBioscience catalog number 12-4317-87) diluted 1:200 was added and incubated for 30 minutes at room temperature. The cells were washed twice with FACS buffer and were fixed on ice for 15 minutes by adding 100 μl of BD Cytofix (BD Biosciences catalog number 554655) to each well. The cells were washed twice with FACS buffer.

For assay [11] the target is unchanged. Briefly: competition FACS on PC3 cells; competitor (reporter) biotinylated CP13E10.
Assay [12] has as its target T2, recombinant cynomolgus monkey CDCP1 …. Briefly: SPR, Biacore T200. The method, then:
as §2

The target of assay [13] is T3, recombinant human CDCP1 extracellular …. Kind of assay: SPR, Biacore T200. The method, then:
as §2

The target is the same in assay [14]. Briefly: competition ELISA of Example 7 on CDCP1-ECD (biotinylated CP13E10-54HC-89LC reporter as described there; the reporter is not named on the sheet).
Description: The CDCP1-ECD protein was diluted to 1 μg/ml in PBS-CMF pH 7.2, 100 μl was added to each well of the plate, and the plate was incubated overnight at 4° C. The contents of the plate were discarded and then the plate was blocked with PBS-CMF pH7.2+0.02% casein for 3 hours at room temperature. […] The wells were washed four times with PBS-CMF pH7.2+0.03% tween-20. Streptavidin-HRP (catalog #7100-05, Southern Biotech, (Birmingham, Alabama) diluted 1:10,000 was added and incubated for 30 minutes at room temperature. The wells were washed four times with PBS-CMF pH 7.2+0.03% tween-20 and then TMB (BioFx) was added. The reaction developed for 5 to 10 minutes and was then quenched with 0.18 N H₂SO₄. The absorbance at 450 nm was determined and the results are shown in FIG. 7.

T2 sequence (A0A2K5VLA8 entry or part of it): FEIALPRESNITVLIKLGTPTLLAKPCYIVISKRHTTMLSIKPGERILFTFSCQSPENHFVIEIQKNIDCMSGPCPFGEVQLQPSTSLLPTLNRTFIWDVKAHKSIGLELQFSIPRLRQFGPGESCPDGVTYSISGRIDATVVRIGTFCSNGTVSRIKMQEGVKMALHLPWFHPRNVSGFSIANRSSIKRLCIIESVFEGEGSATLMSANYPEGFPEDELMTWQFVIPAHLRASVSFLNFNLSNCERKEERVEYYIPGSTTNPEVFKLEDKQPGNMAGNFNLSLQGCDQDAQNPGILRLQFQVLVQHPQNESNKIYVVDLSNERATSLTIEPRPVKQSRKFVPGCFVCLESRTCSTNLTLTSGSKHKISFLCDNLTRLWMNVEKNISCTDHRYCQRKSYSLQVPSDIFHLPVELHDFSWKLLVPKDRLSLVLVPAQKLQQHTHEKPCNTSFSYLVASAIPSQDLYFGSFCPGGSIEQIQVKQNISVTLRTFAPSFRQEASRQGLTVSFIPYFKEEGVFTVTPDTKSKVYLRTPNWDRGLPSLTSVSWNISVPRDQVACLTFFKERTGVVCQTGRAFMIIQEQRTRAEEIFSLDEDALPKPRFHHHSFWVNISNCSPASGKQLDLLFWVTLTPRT

B1: antibody 24 (antibody, human IgG1, kappa, V domains shown)
VH: QVQLVESGGGVVQPGRSLRLSCAASGFTFSSYGMHWVRQAPGKGLEWVAVISYDGSNKYYADSVKGRFTISRDNSKNTLYLQMNSLRAEDTAVYYCARGVGLPDIWGQGTMVTVSS
VL: EIVMTQSPDTLSLSPGERATLSCRASQKIYYSYLAWYQQKPGQAPRLLISGASTRASDISDRFSGGGSGTDFTLTINSLESEDAAVYYCQQYDSLPVTFGRGTKLEIKR
notes: Human IgG1, kappa
Take B1: in assay [1], the binding result is recorded as “binds”.

B2: antibody 76 (antibody, human IgG1, lambda, V domains shown)
VH: QVQLVQSGAEVKKPGSSVKVSCKASGGTFSSYAISWVRQAPGQGLEWMGGIIPIFGTANYAQKFQGRVTITADKSTSTAYMELSSLRSEDTAVYYCARDPTYFDWTRRGYYYMDVWGKGTTVTVSS
VL: SYELTQPPSVSVSPGQTARITCSGDALPKKYAFWYQQKSGQAPVLVIYEDSKRPSGIPEKFSGSSSGTMATLTISGAQVEDEADYYCYSTDSSDNPRGVFGGGTKLTVLG
notes: Human IgG1, lambda
Consider B2, for which the binding result in assay [2] was “binds”.

B3: CP13E10-54HC-89LC (antibody, human IgG1, kappa, V domains shown)
VH: EVQLVQSGAEVKKPGASVKVSCKASGYTFTSYYMHWVRQAPGQGLEWMGIINPSGGSTSYAQKFQGRVTMTRDTSTSTVYMELSSLRSEDTAVYYCARDGELRHFDHLLDYHYYMDVWGQGTTVTVSS
VL: EIVLTQSPATLSLSPGERATLSCRASQSVGSYLAWYQQRPGQAPRLLIYDASNRATGIPARFSGSGSGTDFTLTISSLEPEDFAVYYCQQRAQEFTFGQGTKVEIKR
notes: Human IgG1, kappa; Alexa Fluor 647 conjugated in the internalization assay; also called CP13E10-54VH-89VL
As for B3, the concentration for a half-maximal effect (EC50) in assay [3] was determined as 0.77 nM; in assay [4], 0.73 nM; in [7], 1.69 nM. The Kd in assay [5] was determined as 79.9 nM; in [6] it was 52.9 nM; in [8], 63.4 nM; in [9] it was 42 nM.

B4: CP13E10-54 variant (antibody, human IgG1, kappa, V domains shown)
VH: EVQLVQSGAEVKKPGASVKVSCKASGYTFTSYYMHWVRQAPGQGLEWMGIINPSGGSTSYAQKFQGRVTMTRDTSTSTVYMELSSLRSEDTAVYYCARDGELRHFDHLLDYHYYMDVWGQGTTVTVSS
VL: EIVLTQSPATLSLSPGERATLSCRASQSVGSYLAWYQQRPGQAPRLLIYDASNRATGIPARFSGSGSGTDFTLTISSLEPEDFAVYYCQQRANVFTFGQGTKVEIKR
Regarding B4, in [10], the “IC50 (read off the curve)” value is approximately 9 nM.

B5: CP13E10-34 variant (antibody, V domains shown)
VH: EVQLVQSGAEVKKPGASVKVSCKASGYTFTSYYMHWVRQAPGQGLEWMGIINPSGGSTSYAQKFQGRVTMTRDTSTSTVYMELSSLRSEDTAVYYCARDGVLRHFDHLLDYHYYMDVWGKGTTVTVSS
VL: EIVLTQSPATLSLSPGERATLSCRASQSVGSYLAWYQQRPGQAPRLLIYDASNRATGIPARFSGSGSGTDFTLTISSLEPEDFAVYYCQQRANVFTFGQGTKVEIKR
Consider B5, for which the Kd in [6] worked out at 607 nM. Also, the “fold lower binding relative to parental CP13E10” value in assay [11] is more than 7 fold.

B6: CP13E10 (antibody, human IgG1, kappa, V domains shown)
VH: EVQLVQSGAEVKKPGASVKVSCKASGYTFTSYYMHWVRQAPGQGLEWMGIINPSGGSTSYAQKFQGRVTMTRDTSTSTVYMELSSLRSEDTAVYYCARDGVLRYFDWLLDYYYYMDVWGKGTTVTVSS
VL: EIVLTQSPATLSLSPGERATLSCRASQSVGSYLAWYQQRPGQAPRLLIYDASNRATGIPARFSGSGSGTDFTLTISSLEPEDFAVYYCQQRANVFTFGQGTKVEIKR
notes: Human IgG1, kappa; Heavy chain can be prepared with or without the C-terminal lysine; also called CP13E10-WT; parental CP13E10 antibody
In the case of B6, the Kd in assay [5] came out at 232 nM; in [6], 219 nM. Further, the “IC50 (read off the curve)” value in assay [10] is approximately 7 nM.

B7: CP13E10-291 (antibody, human IgG1, kappa, V domains shown)
VH: EVQLVQSGAEVKKPGASVKVSCKASGYTFTSYYMHWVRQAPGQGLEWMGIINPSGGSTSYAQKFQGRVTMTRDTSTSTVYMELSSLRSEDTAVYYCARDGELRHFDQVYNYHYYMDVWGQGTTVTVSS
VL: EIVLTQSPATLSLSPGERATLSCRASQSVGSYLAWYQQRPGQAPRLLIYDASNRATGIPARFSGSGSGTDFTLTISSLEPEDFAVYYCQQRANVFTFGQGTKVEIKR
notes: Human IgG1, kappa
Take B7: the Kd in assay [5] is 3.12 nM; in [6], 2.9 nM. Moreover, the “fold increase in binding relative to CP13E10-WT” value in [12] was more than 70 fold. For the same molecule, the “fold increase in affinity relative to CP13E10-34” value in assay [13] was more than 200 fold.

B8: CP13E10-54HCv13-89LCv1 (antibody, human IgG1, kappa, V domains shown)
VH: EVQLVQSGAEVKKPGASVKVSCKASGYTFTSYYMHWVRQAPGQGLEWMGIINPSGGSTSYAQKFQGRVTMTRDTSTSTVYMELSSLRSEDTAVYYCARDAELRHFDHLLDYHYYMDVWGQGTTVTVSS
VL: EIVMTQSPATLSLSPGERATLSCRASQSVGSYLAWYQQKPGQAPRLLIYDASNRATGIPARFSGSGSGTDFTLTISSLQPEDFAVYYCQQRAQEFTFGQGTKVEIKR
Take B8: in assay [14], the “IC50 (read off the curve)” value is approximately 5 nM.
